Measurements: paper PMC11500688

How the values were obtained:
[1] = molecular target: HsCFAP410-CTD, C-terminal domain of Homo sapiens cilia- and flagella-associated protein 410, wild type (human) (UniProt O43822); experiment: crystal structure; synthetic CTD polypeptides; TbCFAP410-CTD in 2.0 M (NH4)2SO4, 5% iso-propanol, 4°C; HsCFAP410-CTD in 1.5 M NaCl, 10% ethanol, 22°C; CrCFAP410-CTD in 0.02 M CaCl2, 0.1 M sodium acetate pH 5.0, 30% MPD, 4°C
[2] = molecular target: CrCFAP410-CTD mutant L224P; experiment: static light scattering (SLS); conditions: parent: 15.62
[3] = molecular target: CrCFAP410-CTD, C-terminal domain of Chlamydomonas reinhardtii CFAP410, wild type (C. reinhardtii); experiment: SEC-MALS; static light scattering coupled to SEC; 50 μl at 2 mg/ml on Superdex S-200 10/300 GL; 20 mM HEPES pH 7.5, 100 mM NaCl, 1 mM DTT, 1% glycerol; Mini-DAWN Treos
[4] = molecular target: CrCFAP410-CTD, C-terminal domain of Chlamydomonas reinhardtii CFAP410, wild type (C. reinhardtii); experiment: crystal structure; synthetic CTD polypeptides; TbCFAP410-CTD in 2.0 M (NH4)2SO4, 5% iso-propanol, 4°C; HsCFAP410-CTD in 1.5 M NaCl, 10% ethanol, 22°C; CrCFAP410-CTD in 0.02 M CaCl2, 0.1 M sodium acetate pH 5.0, 30% MPD, 4°C
[5] = molecular target: TbCFAP410-CTD, C-terminal domain of Trypanosoma brucei CFAP410, wild type (T. brucei); experiment: as above
[6] = molecular target: CrCFAP410-CTD mutant A219E; experiment: static light scattering (SLS); conditions: parent: 15.62
[7] = molecular target: CrCFAP410-CTD mutant A219E (C. reinhardtii); experiment: SEC-MALS; static light scattering coupled to SEC; 50 μl at 2 mg/ml on Superdex S-200 10/300 GL; 20 mM HEPES pH 7.5, 100 mM NaCl, 1 mM DTT, 1% glycerol; Mini-DAWN Treos

**Q.** How did the stoichiometry N [1] turn out when “HsCFAP410-CTD, C-terminal domain of Homo sapiens cilia- and flagella-associated protein 410, wild type (from UniProt O43822 212-246) (domain or fragment)” was run?
**A.** 4

**Q.** For “CrCFAP410-CTD, C-terminal domain of Chlamydomonas reinhardtii CFAP410, wild type L224P”, which other: molecular weight (SLS) [2] is on record?
**A.** 4.16 kDa

**Q.** Which results are given for “CrCFAP410-CTD, C-terminal domain of Chlamydomonas reinhardtii CFAP410, wild type (domain or fragment)”?
**A.** stoichiometry N [3]: 4; stoichiometry N [4]: 4

**Q.** For “TbCFAP410-CTD, C-terminal domain of Trypanosoma brucei CFAP410, wild type (domain or fragment)”, which stoichiometry N [5] is on record?
**A.** 4

**Q.** “CrCFAP410-CTD, C-terminal domain of Chlamydomonas reinhardtii CFAP410, wild type A219E” was tested. Which other: molecular weight (SLS) [6] did it give?
**A.** 8.35 kDa

**Q.** How did the stoichiometry N [7] turn out when “CrCFAP410-CTD mutant A219E (domain or fragment)” was run?
**A.** 2
